One molecule from patent US20090087428A1 can be followed below.

What is called EC50 is the concentration that produces a half-maximal response. Higher therefore signals a less potent agent.

The target of the assay is GST-huFcγRIIA(R131) (human) [GST: P08515]. Put plainly: ELISA, plate-coated GST fusion (FIG. 8). On the technique in general: ELISA stands for enzyme-linked immunosorbent assay.

B1: Antibody 5A6.2.1 (anti-human FcγRIIB monoclonal antibody) (antibody)
VH: EVKLEESGGGLVQPGGSMKLSCVASGFTFSDAWMDWVRQSPERGLEWVAEIRSKPNNHATYYAESVKGRFTISRDDSKSSVYLQMTSLRPEDTGIYYCTHFDYWGQGTTLTVSSAKTTGPSVFPLAPSSKSTSGGTAALGCLVKDYFPEPVTVSWNSGALTSGVHTFPAVLQSSGLYSLSSVVTVPSSSLGTQTYICNVNHKPSNTKVDKKVEPKSCDKTHT
VL: DIQMTQSPSSLSASLGERVSLTCRASQEISGYLSWFQQKPDGTIKRLIYAASALDSGVPKRFSGSWSGSDYSLTISSLESEDFADYYCLQYVSYPLTFGAGTKLELKRTVAAPSVFIFPPSDEQLKSGTASVVCLLNNFYPREAKVQWKVDNALQSGNSQESVTEQDSKDSTYSLSSTLTLSKADYEKHKVYACEVTHQGLSSPVTKSFNRGEC
Take B1: the EC50 came out at 2.5 µg/mL.
